Laboratory results reported in the supplement of paper PMC11246515.
± gives the standard deviation of the averaged measurements.

Assay: total protein half-life in vivo (active degradation + dilution); higher = more stable protein
[1] = E. coli NCM3722 delta-clpP delta-lon delta-hslV, growth: N-lim chemostat, doubling time 6 h
[2] = E. coli NCM3722 delta-clpP, growth: N-lim chemostat, doubling time 6 h
[3] = E. coli NCM3722 delta-hslV, growth: N-lim chemostat, doubling time 6 h
[4] = E. coli NCM3722 delta-lon, growth: N-lim chemostat, doubling time 6 h
[5] = E. coli NCM3722 delta-smpB, growth: N-lim chemostat, doubling time 6 h
[6] = wild type E. coli NCM3722, growth: C-lim chemostat, doubling time 3 h
[7] = wild type E. coli NCM3722, growth: C-lim chemostat, doubling time 6 h
[8] = wild type E. coli NCM3722, growth: C-lim chemostat, doubling time 12 h
[9] = wild type E. coli NCM3722, growth: N-lim chemostat, doubling time 6 h
[10] = wild type E. coli NCM3722, growth: N-lim chemostat, doubling time 12 h
[11] = wild type E. coli NCM3722, growth: P-lim chemostat, doubling time 6 h
[12] = wild type E. coli NCM3722, growth: P-lim chemostat, doubling time 12 h

Row | Sequence | total protein half-life in vivo [1] | total protein half-life in vivo [2] | total protein half-life in vivo [3] | total protein half-life in vivo [4] | total protein half-life in vivo [5] | total protein half-life in vivo [6] | total protein half-life in vivo [7] | total protein half-life in vivo [8] | total protein half-life in vivo [9] | total protein half-life in vivo [10] | total protein half-life in vivo [11] | total protein half-life in vivo [12]
1 | MEKTYNPQDIEQPLYEHWEKQGYFKPNGDESQESFCIMIPPPNVTGSLHMGHAFQQTIMDTMIRYQRMQGKNTLWQVGTDHAGIATQMVVERKIAAEEGKTRHDYGREAFIDKIWEWKAESGGTITRQMRRLGNSVDWERERFTMDEGLSNAVKEVFVRLYKEDLIYRGKRLVNWDPKLRTAISDLEVENRESKGSMWHIRYPLADGAKTADGKDYLVVATTRPETLLGDTGVAVNPEDPRYKDLIGKYVILPLVNRRIPIVGDEHADMEKGTGCVKITPAHDFNDYEVGKRHALPMINILTFDGDIRESAQVFDTKGNESDVYSSEIPAEFQKLERFAARKAVVAAVDALGLLEEIKPHDLTVPYGDRGGVVIEPMLTDQWYVRADVLAKPAVEAVENGDIQFVPKQYENMYFSWMRDIQDWCISRQLWWGHRIPAWYDEAGNVYVGRNEDEVRKENNLGADVVLRQDEDVLDTWFSSALWTFSTLGWPENTDALRQFHPTSVMVSGFDIIFFWIARMIMMTMHFIKDENGKPQVPFHTVYMTGLIRDDEGQKMSKSKGNVIDPLDMVDGISLPELLEKRTGNMMQPQLADKIRKRTEKQFPNGIEPHGTDALRFTLAALASTGRDINWDMKRLEGYRNFCNKLWNASRFVLMNTEGQDCGFNGGEMTLSLADRWILAEFNQTIKAYREALDSFRFDIAAGILYEFTWNQFCDWYLELTKPVMNGGTEAELRGTRHTLVTVLEGLLRLAHPIIPFITETIWQRVKVLCGITADTIMLQPFPQYDASQVDEAALADTEWLKQAIVAVRNIRAEMNIAPGKPLELLLRGCSADAERRVNENRGFLQTLARLESITVLPADDKGPVSVTKIIDGAELLIPMAGLINKEDELARLAKEVAKIEGEISRIENKLANEGFVARAPEAVIAKEREKLEGYAEAKAKLIEQQAVIAAL | 5.35 ± 0.76 h | 5.48 ± 1.1 h | 4.68 ± 0.11 h | 5.17 ± 0.062 h | 4.417 ± 0.013 h | 3 ± 0.27 h | 5.796 ± 0.013 h | 10.5 ± 0.32 h | 4.721 ± 0.046 h | 7.86 ± 0.2 h | 5.92 ± 0.23 h | 10.7 ± 0.61 h
2 | MELATTQSVLMQIQPTIQRFARMLASVLQLEVEIVDENLCRVAGTGAYGKFLGRQLSGNSRLLRHVLETKTEKVVTQSRFDPLCEGCDSKENCREKAFLGTPVILQDRCVGVISLIAVTHEQQEHISDNLREFSDYVRHISTIFVSKLLEDQGPGDNISKIFATMIDNMDQGVLVVDDENRVQFVNQTALKTLGVVQNNIIGKPIRFRPLTFESNFTHGHMQHIVSWDDKSELIIGQLHNIQGRQLFLMAFHQSHTSFSVANAPDEPHIEQLVGECRVMRQLKRLISRIAPSPSSVMVVGESGTGKEVVARAIHKLSGRRNKPFIAINCAAIPEQLLESELFGYVKGAFTGASANGKTGLIQAANTGTLFLDEIGDMPLMLQAKLLRAIEAREILPIGASSPIQVDIRIISATNQNLAQFIAEGKFREDLFYRLNVIPITLPPLRERQEDIELLVHYFLHLHTRRLGSVYPGIAPDVVEILRKHRWPGNLRELSNLMEYLVNVVPSGEVIDSTLLPPNLLNNGTTEQSDVTEVSEAHLSLDDAGGTALEEMEKQMIREALSRHNSKKQVADELGIGIATLYRKIKKYELLNT | 4.91 ± 0.062 h |  |  |  |  | 1.46 ± 0.072 h | 2.41 ± 0.17 h | 2.87 ± 0.29 h |  | 1.52 h |  | 2.56 h
3 | MELIEKHVSFGGWQNMYRHYSQSLKCEMNVGVYLPPKAANEKLPVLYWLSGLTCNEQNFITKSGMQRYAAEHNIIVVAPDTSPRGSHVADADRYDLGQGAGFYLNATQAPWNEHYKMYDYIRNELPDLVMHHFPATAKKSISGHSMGGLGALVLALRNPDEYVSVSAFSPIVSPSQVPWGQQAFAAYLAENKDAWLDYDPVSLISQGQRVAEIMVDQGLSDDFYAEQLRTPNLEKICQEMNIKTLIRYHEGYDHSYYFVSSFIGEHIAYHANKLNMR | 7.46 h |  |  | 4.61 h | 2.58 h | 2.74 ± 0.72 h | 7.26 ± 1 h | 6.87 h |  |  |  | 10.9 h
4 | MELKATTLGKRLAQHPYDRAVILNAGIKVSGDRHEYLIPFNQLLAIHCKRGLVWGELEFVLPDEKVVRLHGTEWGETQRFYHHLDAHWRRWSGEMSEIASGVLRQQLDLIATRTGENKWLTREQTSGVQQQIRQALSALPLPVNRLEEFDNCREAWRKCQAWLKDIESARLQHNQAYTEAMLTEYADFFRQVESSPLNPAQARAVVNGEHSLLVLAGAGSGKTSVLVARAGWLLARGEASPEQILLLAFGRKAAEEMDERIRERLHTEDITARTFHALALHIIQQGSKKVPIVSKLENDTAARHELFIAEWRKQCSEKKAQAKGWRQWLTEEMQWSVPEGNFWDDEKLQRRLASRLDRWVSLMRMHGGAQAEMIASAPEEIRDLFSKRIKLMAPLLKAWKGALKAENAVDFSGLIHQAIVILEKGRFISPWKHILVDEFQDISPQRAALLAALRKQNSQTTLFAVGDDWQAIYRFSGAQMSLTTAFHENFGEGERCDLDTTYRFNSRIGEVANRFIQQNPGQLKKPLNSLTNGDKKAVTLLDESQLDALLDKLSGYAKPEERILILARYHHMRPASLEKAATRWPKLQIDFMTIHASKGQQADYVIIVGLQEGSDGFPAAARESIMEEALLPPVEDFPDAEERRLMYVALTRARHRVWALFNKENPSPFVEILKNLDVPVARKP | 6.73 ± 0.37 h | 5.42 ± 0.098 h | 4.93 ± 0.55 h | 5.31 ± 0.26 h | 4.17 ± 0.1 h | 2.66 ± 0.17 h | 5.06 ± 0.43 h | 8.95 ± 0.32 h | 4.45 ± 0.033 h | 7.69 ± 0.31 h | 4.69 ± 0.16 h | 9.53 ± 0.42 h
5 | MELLCPAGNLPALKAAIENGADAVYIGLKDDTNARHFAGLNFTEKKLQEAVSFVHQHRRKLHIAINTFAHPDGYARWQRAVDMAAQLGADALILADLAMLEYAAERYPHIERHVSVQASATNEEAINFYHRHFDVARVVLPRVLSIHQVKQLARVTPVPLEVFAFGSLCIMSEGRCYLSSYLTGESPNTIGACSPARFVRWQQTPQGLESRLNEVLIDRYQDGENAGYPTLCKGRYLVDGERYHALEEPTSLNTLELLPELMAANIASVKIEGRQRSPAYVSQVAKVWRQAIDRCKADPQNFVPQSAWMETLGSMSEGTQTTLGAYHRKWQ | 4.53 h |  |  |  |  |  |  |  |  |  |  | 
6 | MELLLLSNSTLPGKAWLEHALPLIAEQLQGRRSAVFIPFAGVTQTWDDYTAKTAAVLAPLGVSVTGIHSVVDPVAAIENAEIVIVGGGNTFQLLKQCRERGLLAPITDVVKRGALYIGWSAGANLACPTIRTTNDMPIVDPQGFDALNLFPLQINPHFTNALPEGHKGETREQRIRELLVVAPELTIIGLPEGNWITVSKGHATLGGPNTTYVFKAGEEAVPLEAGHRF [P0A7C6] | 3.28 h |  |  |  |  | 3.03 h | 4.93 ± 0.56 h | 9.36 h | 4.73 h | 5.8 h | 5.69 ± 0.077 h | 11.1 ± 0.86 h
7 | MELYLDTSDVVAVKALSRIFPLAGVTTNPSIIAAGKKPLDVVLPQLHEAMGGQGRLFAQVMATTAEGMVNDALKLRSIIADIVVKVPVTAEGLAAIKMLKAEGIPTLGTAVYGAAQGLLSALAGAEYVAPYVNRIDAQGGSGIQTVTDLHQLLKMHAPQAKVLAASFKTPRQALDCLLAGCESITLPLDVAQQMISYPAVDAAVAKFEQDWQGAFGRTSI | 4.96 ± 0.38 h | 4.345 ± 0.017 h | 4.474 ± 0.0021 h | 4.44 ± 0.26 h | 4.3899 ± 0.004 h | 2.703 ± 0.021 h | 5.36 h | 8.19 ± 0.81 h | 3.81 ± 0.38 h | 7.04 ± 2.2 h | 5.72 ± 0.61 h | 10 ± 0.64 h
8 | MEMLEEHRCFEGWQQRWRHDSSTLNCPMTFSIFLPPPRDHTPPPVLYWLSGLTCNDENFTTKAGAQRVAAELGIVLVMPDTSPRGEKVANDDGYDLGQGAGFYLNATQPPWATHYRMYDYLRDELPALVQSQFNVSDRCAISGHSMGGHGALIMALKNPGKYTSVSAFAPIVNPCSVPWGIKAFSSYLGEDKNAWLEWDSCALMYASNAQDAIPTLIDQGDNDQFLADQLQPAVLAEAARQKAWPMTLRIQPGYDHSYYFIASFIEDHLRFHAQYLLK | 5.79 ± 0.058 h | 5.61 ± 0.89 h |  | 6.09 ± 0.43 h | 5.19 ± 0.2 h | 3.5 ± 0.13 h | 5.59 ± 0.15 h | 13 ± 2.8 h | 5.67 ± 0.38 h | 8.798 ± 0.034 h | 6.2 ± 0.11 h | 11.9 ± 1.7 h
9 | MEMLSGAEMVVRSLIDQGVKQVFGYPGGAVLDIYDALHTVGGIDHVLVRHEQAAVHMADGLARATGEVGVVLVTSGPGATNAITGIATAYMDSIPLVVLSGQVATSLIGYDAFQECDMVGISRPVVKHSFLVKQTEDIPQVLKKAFWLAASGRPGPVVVDLPKDILNPANKLPYVWPESVSMRSYNPTTTGHKGQIKRALQTLVAAKKPVVYVGGGAITAGCHQQLKETVEALNLPVVCSLMGLGAFPATHRQALGMLGMHGTYEANMTMHNADVIFAVGVRFDDRTTNNLAKYCPNATVLHIDIDPTSISKTVTADIPIVGDARQVLEQMLELLSQESAHQPLDEIRDWWQQIEQWRARQCLKYDTHSEKIKPQAVIETLWRLTKGDAYVTSDVGQHQMFAALYYPFDKPRRWINSGGLGTMGFGLPAALGVKMALPEETVVCVTGDGSIQMNIQELSTALQYELPVLVVNLNNRYLGMVKQWQDMIYSGRHSQSYMQSLPDFVRLAEAYGHVGIQISHPHELESKLSEALEQVRNNRLVFVDVTVDGSEHVYPMQIRGGGMDEMWLSKTERT | 5.76 ± 1.1 h | 5.31 ± 0.18 h | 5.06 ± 0.41 h | 5.03 ± 0.088 h | 5.13 ± 0.46 h | 3.03 ± 0.14 h | 6.41 ± 0.94 h | 11.1 ± 0.39 h | 4.78 ± 0.1 h | 8.81 ± 0.62 h | 6.092 ± 0.014 h | 12 ± 0.24 h
10 | MEMTNAQRLILSNQYKMMTMLDPANAERYRRLQTIIERGYGLQMRELDREFGELKEETCRTIIDIMEMYHALHVSWSNLQDQQSIDERRVTFLGFDAATEARYLGYVRFMVNVEGRYTHFDAGTHGFNAQTPMWEKYQRMLNVWHACPRQYHLSANEINQIINA [P0A8W8] | 6.72 ± 0.27 h | 6.41 ± 0.99 h | 6.154 ± 0.032 h | 6.11 ± 0.3 h | 5.32 ± 0.45 h | 3.28 ± 0.18 h | 6.14 ± 0.35 h | 12.1 ± 0.18 h | 5.83 ± 0.58 h | 12.9 ± 2.1 h | 6.41 ± 0.61 h | > 16 h
11 | MEMYFKRMKDEWTGLVEQADPPIRAKAAEIAVAHAHYLSIEFYRIVRIDPHAEEFLSNEQVERQLKSAMERWIINVLSAQVDDVERLIQIQHTVAEVHARIGIPVEIVEMGFRVLKKILYPVIFSSDYSAAEKLQVYHFSINSIDIAMEVMTRAFTFSDSSASKEDENYRIFSLLENAEEEKERQIASILSWEIDIIYKILLDSDLGSSLPLSQADFGLWFNHKGRHYFSGIAEVGHISRLIQDFDGIFNQTMRNTRNLNNRSLRVKFLLQIRNTVSQIITLLRELFEEVSRHEVGMDVLTKLLNRRFLPTIFKREIAHANRTGTPLSVLIIDVDKFKEINDTWGHNTGDEILRKVSQAFYDNVRSSDYVFRYGGDEFIIVLTEASENETLRTAERIRSRVEKTKLKAANGEDIALSLSIGAAMFNGHPDYERLIQIADEALYIAKRRGRNRVELWKASL [P0AA89] | 6.71 ± 1.4 h | 3.48 ± 0.94 h | 2.854 ± 0.0076 h | 4.26 ± 0.88 h | 2.81 ± 0.03 h | 1.66 ± 0.26 h | 3.16 ± 0.017 h | 4.49 ± 0.37 h | 3.21 ± 0.42 h | 4.83 ± 0.27 h | 1.49 ± 0.32 h | 3.09 ± 0.069 h
